Laboratory results published in patent US20110118447A1.

Target: binding partner of C5A (XPA23)
Assay: Biacore K-off

Row | fold difference in affinity vs original [fold] | Binder
1 | 0.87 | C5A (XPA23) VL S50T (antibody, V domains shown) VH: EVQLLESGGGLVQPGGSLRLSCAASGFTFSKYFMFWVRQAPGKGLEWVSVISPSGGMTRYADSVKGRFTISRDNSKNTLYLQMNSLRAEDTAVYYCARVGYGGNSDYWGQGTLVTVSS VL: DIQMTQSPSSVSASVGDRLTIICRASQDINRWLAWYQQTPGNAPKLLIHTATSLQSGVPSRFSGSGSGTDFTLTINSLQPEDFATYYCQQADSFPLTFGGGTKVEIK
2 | 0.25 | C5A (XPA23) VL S50N (antibody, V domains shown) VH: EVQLLESGGGLVQPGGSLRLSCAASGFTFSKYFMFWVRQAPGKGLEWVSVISPSGGMTRYADSVKGRFTISRDNSKNTLYLQMNSLRAEDTAVYYCARVGYGGNSDYWGQGTLVTVSS VL: DIQMTQSPSSVSASVGDRLTIICRASQDINRWLAWYQQTPGNAPKLLIHNATSLQSGVPSRFSGSGSGTDFTLTINSLQPEDFATYYCQQADSFPLTFGGGTKVEIK

More lines, now with the values behind:

Row | Binder | fold difference in affinity vs original [fold]
3 | C5A (XPA23) VL H49S (antibody, V domains shown) VH: EVQLLESGGGLVQPGGSLRLSCAASGFTFSKYFMFWVRQAPGKGLEWVSVISPSGGMTRYADSVKGRFTISRDNSKNTLYLQMNSLRAEDTAVYYCARVGYGGNSDYWGQGTLVTVSS VL: DIQMTQSPSSVSASVGDRLTIICRASQDINRWLAWYQQTPGNAPKLLISSATSLQSGVPSRFSGSGSGTDFTLTINSLQPEDFATYYCQQADSFPLTFGGGTKVEIK | 0.14
4 | C5A (XPA23) VL H49N (antibody, V domains shown) VH: EVQLLESGGGLVQPGGSLRLSCAASGFTFSKYFMFWVRQAPGKGLEWVSVISPSGGMTRYADSVKGRFTISRDNSKNTLYLQMNSLRAEDTAVYYCARVGYGGNSDYWGQGTLVTVSS VL: DIQMTQSPSSVSASVGDRLTIICRASQDINRWLAWYQQTPGNAPKLLINSATSLQSGVPSRFSGSGSGTDFTLTINSLQPEDFATYYCQQADSFPLTFGGGTKVEIK | 0.31
5 | C5A (XPA23) VL H49Y (antibody, V domains shown) VH: EVQLLESGGGLVQPGGSLRLSCAASGFTFSKYFMFWVRQAPGKGLEWVSVISPSGGMTRYADSVKGRFTISRDNSKNTLYLQMNSLRAEDTAVYYCARVGYGGNSDYWGQGTLVTVSS VL: DIQMTQSPSSVSASVGDRLTIICRASQDINRWLAWYQQTPGNAPKLLIYSATSLQSGVPSRFSGSGSGTDFTLTINSLQPEDFATYYCQQADSFPLTFGGGTKVEIK | 0.52
6 | C5A (XPA23) VL S50E (antibody, V domains shown) VH: EVQLLESGGGLVQPGGSLRLSCAASGFTFSKYFMFWVRQAPGKGLEWVSVISPSGGMTRYADSVKGRFTISRDNSKNTLYLQMNSLRAEDTAVYYCARVGYGGNSDYWGQGTLVTVSS VL: DIQMTQSPSSVSASVGDRLTIICRASQDINRWLAWYQQTPGNAPKLLIHEATSLQSGVPSRFSGSGSGTDFTLTINSLQPEDFATYYCQQADSFPLTFGGGTKVEIK | 0.02
7 | C5A (XPA23) VL S50K (antibody, V domains shown) VH: EVQLLESGGGLVQPGGSLRLSCAASGFTFSKYFMFWVRQAPGKGLEWVSVISPSGGMTRYADSVKGRFTISRDNSKNTLYLQMNSLRAEDTAVYYCARVGYGGNSDYWGQGTLVTVSS VL: DIQMTQSPSSVSASVGDRLTIICRASQDINRWLAWYQQTPGNAPKLLIHKATSLQSGVPSRFSGSGSGTDFTLTINSLQPEDFATYYCQQADSFPLTFGGGTKVEIK | 0.1
8 | C5A (XPA23) VL S50H (antibody, V domains shown) VH: EVQLLESGGGLVQPGGSLRLSCAASGFTFSKYFMFWVRQAPGKGLEWVSVISPSGGMTRYADSVKGRFTISRDNSKNTLYLQMNSLRAEDTAVYYCARVGYGGNSDYWGQGTLVTVSS VL: DIQMTQSPSSVSASVGDRLTIICRASQDINRWLAWYQQTPGNAPKLLIHHATSLQSGVPSRFSGSGSGTDFTLTINSLQPEDFATYYCQQADSFPLTFGGGTKVEIK | 0.05
